Laboratory results: the supplement of paper PMC9112550, “Optimization of the antimicrobial peptide Bac7 by deep mutational scanning” (BMC Biology, 2022)

Tested on: Escherichia coli TOP10
Assay: shrunken log2 fold change of peptide-encoding DNA abundance (4.5 h post-induction vs induction); higher = less antimicrobial activity (less host growth inhibition)
Conditions: time post-induction: 4.5 h; library: site-saturation at positions 5, 18, 19, 20
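Also: peptides expressed intracellularly from a pBAD plasmid library in pooled LB shake-flask culture, induced with 0.3% L-arabinose, DNA abundance read by NGS, three biological replicates, DESeq2 with apeglm shrinkage.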

Sequence	shrunken log2 fold change
RRIRYRPPRLPRPRPRPVDTPRP	-0.204
RRIRHRPPRLPRPRPRPAMMPRP	-0.114
RRIRFRPPRLPRPRPRPMIHPRP	-0.0677
RRIRMRPPRLPRPRPRPICEPRP	0.241
RRIRDRPPRLPRPRPRPCHCPRP	-0.158
RRIRLRPPRLPRPRPRPNHQPRP	-0.19
RRIRVRPPRLPRPRPRPTQVPRP	0.103
RRIRHRPPRLPRPRPRPDDSPRP	-0.01
RRIRYRPPRLPRPRPRPCPTPRP	-0.0225
RRIRARPPRLPRPRPRPNPMPRP	0.287
RRIRERPPRLPRPRPRPCPIPRP	-0.246
RRIRRRPPRLPRPRPRPWEMPRP	-0.171
RRIRCRPPRLPRPRPRPNRMPRP	2.23
RRIRPRPPRLPRPRPRPVTFPRP	-0.186
RRIRCRPPRLPRPRPRPFIYPRP	-0.808
RRIRYRPPRLPRPRPRPSGKPRP	-0.447
RRIRTRPPRLPRPRPRPVLCPRP	0.0726
RRIRSRPPRLPRPRPRPVFRPRP	-0.113
RRIRGRPPRLPRPRPRPHLWPRP	0.942
RRIRQRPPRLPRPRPRPNICPRP	0.0129
RRIRERPPRLPRPRPRPHGIPRP	-0.00973
RRIRLRPPRLPRPRPRPESYPRP	-0.266
RRIRQRPPRLPRPRPRPMPYPRP	-0.0574
RRIRCRPPRLPRPRPRPWKHPRP	-0.264
RRIRDRPPRLPRPRPRPFIQPRP	-0.238

Sequence	shrunken log2 fold change
RRIRCRPPRLPRPRPRPIRFPRP	-0.27
RRIRYRPPRLPRPRPRPEINPRP	0.0373
RRIRYRPPRLPRPRPRPHLMPRP	-0.126
RRIRARPPRLPRPRPRPPHKPRP	0.996
RRIRYRPPRLPRPRPRPVGEPRP	0.207
RRIRRRPPRLPRPRPRPCPWPRP	-0.0433
RRIRNRPPRLPRPRPRPQPHPRP	-0.0382
RRIRTRPPRLPRPRPRPWKRPRP	0.0299
RRIRERPPRLPRPRPRPSDQPRP	-1.5
RRIRKRPPRLPRPRPRPFSMPRP	-0.489
RRIRFRPPRLPRPRPRPQWVPRP	-0.053
RRIRPRPPRLPRPRPRPAPHPRP	0.402
RRIRTRPPRLPRPRPRPRFHPRP	0.192
RRIRSRPPRLPRPRPRPIEEPRP	0.0156
RRIRFRPPRLPRPRPRPARPPRP	0.287
RRIRIRPPRLPRPRPRPFLGPRP	0.00585
RRIRVRPPRLPRPRPRPQADPRP	0.0259
RRIRLRPPRLPRPRPRPWIKPRP	-0.187
RRIRIRPPRLPRPRPRPAEGPRP	-0.122
RRIRYRPPRLPRPRPRPPNVPRP	0.0158
RRIRSRPPRLPRPRPRPVLRPRP	0.0904
RRIRVRPPRLPRPRPRPPGIPRP	0.154
RRIRQRPPRLPRPRPRPADNPRP	-0.536
RRIRVRPPRLPRPRPRPWAWPRP	-0.00558
RRIRQRPPRLPRPRPRPFYCPRP	-0.314

Sequence	shrunken log2 fold change
RRIRIRPPRLPRPRPRPSWAPRP	-0.0867
RRIRYRPPRLPRPRPRPRSIPRP	-0.276
RRIRARPPRLPRPRPRPYNIPRP	-0.159
RRIRSRPPRLPRPRPRPVLVPRP	0.242
RRIRMRPPRLPRPRPRPTRHPRP	0.889
RRIRTRPPRLPRPRPRPVHNPRP	-0.159
RRIRRRPPRLPRPRPRPYNCPRP	0.00861
RRIRHRPPRLPRPRPRPFQQPRP	-0.0263
RRIRCRPPRLPRPRPRPTNHPRP	-0.573
RRIRMRPPRLPRPRPRPFKPPRP	-0.119
RRIRDRPPRLPRPRPRPRRFPRP	0.212
RRIRCRPPRLPRPRPRPFRLPRP	-0.0979
RRIRQRPPRLPRPRPRPHGHPRP	-0.113
RRIRQRPPRLPRPRPRPEWDPRP	0.0586
RRIRWRPPRLPRPRPRPGEMPRP	0.0495
RRIRWRPPRLPRPRPRPRTVPRP	0.0512
RRIRYRPPRLPRPRPRPRKMPRP	-0.178
RRIRRRPPRLPRPRPRPDNQPRP	0.0853
RRIRMRPPRLPRPRPRPPAPPRP	2.01
RRIRFRPPRLPRPRPRPYHQPRP	-0.963
RRIRIRPPRLPRPRPRPPEYPRP	-0.186
RRIRYRPPRLPRPRPRPYHEPRP	-0.194
RRIRIRPPRLPRPRPRPQLEPRP	0.000806
RRIRTRPPRLPRPRPRPLEDPRP	-0.163
RRIRQRPPRLPRPRPRPNGQPRP	-0.262
